B1: Methylmalonic aciduria type A protein, mitochondrial (Homo sapiens), Q8IVH4 (parent)
chain: MPMLLPHPHQHFLKGLLRAPFRCYHFIFHSSTHLGSGIPCAQPFNSLGLHCTKWMLLSDGLKRKLCVQTTLKDHTEGLSDKEQRFVDKLYTGLIQGQRACLAEAITLVESTHSRKKELAQVLLQKVLLYHREQEQSNKGKPLAFRVGLSGPPGAGKSTFIEYFGKMLTERGHKLSVLAVDPSSCTSGGSLLGDKTRMTELSRDMNAYIRPSPTRGTLGGVTRTTNEAILLCEGAGYDIILIETVGVGQSEFAVADMVDMFVLLLPPAGGDELQGIKRGIIEMADLVAVTKSDGDLIVPARRIQAEYVSALKLLRKRSQVWKPKVIRISARSGEGISEMWDKMKDFQDLMLASGELTAKRRKQQKVWMWNLIQESVLEHFRTHPTVREQIPLLEQKVLIGALSPGLAADFLLKAFKSRD
partner: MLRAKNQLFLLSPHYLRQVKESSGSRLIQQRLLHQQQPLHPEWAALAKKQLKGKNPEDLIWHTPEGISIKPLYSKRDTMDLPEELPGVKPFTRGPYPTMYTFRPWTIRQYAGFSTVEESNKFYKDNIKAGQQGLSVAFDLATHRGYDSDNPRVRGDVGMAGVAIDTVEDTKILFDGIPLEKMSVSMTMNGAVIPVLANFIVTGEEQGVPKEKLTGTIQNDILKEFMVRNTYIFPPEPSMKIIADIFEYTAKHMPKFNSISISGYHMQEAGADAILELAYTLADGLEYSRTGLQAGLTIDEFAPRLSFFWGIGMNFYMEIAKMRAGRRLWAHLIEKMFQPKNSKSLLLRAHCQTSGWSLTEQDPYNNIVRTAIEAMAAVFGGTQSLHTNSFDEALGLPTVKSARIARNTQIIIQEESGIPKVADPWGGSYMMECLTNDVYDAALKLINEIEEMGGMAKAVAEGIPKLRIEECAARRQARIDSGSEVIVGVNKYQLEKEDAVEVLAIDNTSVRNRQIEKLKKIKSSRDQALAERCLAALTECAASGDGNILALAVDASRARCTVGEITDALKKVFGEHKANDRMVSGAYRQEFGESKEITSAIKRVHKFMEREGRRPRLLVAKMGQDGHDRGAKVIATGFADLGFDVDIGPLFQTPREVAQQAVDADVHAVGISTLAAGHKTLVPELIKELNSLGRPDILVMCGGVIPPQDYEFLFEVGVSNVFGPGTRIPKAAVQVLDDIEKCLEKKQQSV

Variants of: B1
Details: with muta_human MMUT

Row | Variant | effect of a mutation on the interaction
1 | MPMLLPHPHQHFLKGLLRAPFRCYHFIFHSSTHLGSGIPCAQPFNSLGLHCTKWMLLSDGLKRKLCVQTTLKDHTEGLSDKEQRFVDKLYTGLIQGQRACLAEAITLVESTHSRKKELAQVLLQKVLLYHREQEQSNKGKPLAFRVGLSGPPGAGKSTFIEYFGKMLTERGHKLSVLAVDPSSCTSGRSLLGDKTRMTELSRDMNAYIRPSPTRGTLGGVTRTTNEAILLCEGAGYDIILIETVGVGQSEFAVADMVDMFVLLLPPAGGDELQGIKRGIIEMADLVAVTKSDGDLIVPARRIQAEYVSALKLLRKRSQVWKPKVIRISARSGEGISEMWDKMKDFQDLMLASGELTAKRRKQQKVWMWNLIQESVLEHFRTHPTVREQIPLLEQKVLIGALSPGLAADFLLKAFKSRD [G188R] | disrupting interaction strength

Source: IntAct's records for PubMed 20876572
